Assay results from article PMC12193508.

Key:
[1] = biological target: MMsHsp (sHsp of Methanococcus maripaludis) (Methanococcus maripaludis); assay: AUC; sedimentation velocity at 40 °C, 0.1 mg/mL, 40,000 rpm, Rayleigh interference optics, c(s20,w) with SEDFIT; oligomers of one protein
[2] = biological target: MMsHsp (sHsp of Methanococcus maripaludis) (Methanococcus maripaludis); assay: AUC; sedimentation velocity at 40 °C, 1.0 mg/mL, 40,000 rpm, Rayleigh interference optics, c(s20,w) with SEDFIT; oligomers of one protein

w, weight fraction of peak a (N 2) [1]: 31.3%
w, weight fraction of peak b (N 8) [1]: 4.2%
w, weight fraction of peak c (N 18) [1]: 10.9%
w, weight fraction of peak d (N 24) [1]: 53.6%
stoichiometry N [2]: 16
w, weight fraction of peak a (N 2) [2]: 16.8%
w, weight fraction of peak b (N 8) [2]: 4.6%
w, weight fraction of peak c (N 17) [2]: 5.3%
w, weight fraction of peak d (N 24) [2]: 73.3%
Substance: MMsHsp (sHsp of Methanococcus maripaludis) (natural protein)
